Publication PMC314469, “Protein Interaction Networks by Proteome Peptide Scanning” (PLoS Biology, 2004)

Experiments:
[1] = target: endophilin SH3 (SH3G2_HUMAN), Q99962; assay: SPOT array
[2] = target: T1, amphyphisin SH3 (AMPH_HUMAN), P49418; assay: SPOT array
T1 chain: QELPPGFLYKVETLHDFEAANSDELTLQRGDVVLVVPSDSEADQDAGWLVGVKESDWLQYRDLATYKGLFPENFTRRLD

Row | Binder | normalised SPOT signal, Boehringer light units (BLU); mean over the file's lines of this peptide [1] | normalised SPOT signal, Boehringer light units (BLU); mean over the file's lines of this peptide [2]
1 | ILGFPLRPNRGLYQ [O95972 116-129] | 3140 | 8510
2 | ILGPPRRPSRHDNS [Q9NZN5 600-613] | 5800 | 17700
3 | ILGSPARPPFSFQP [Q96C66 716-730] | 1550 | 33
4 | ILLSISRPYKTKPT [Q9Y5J0 40-53] | 130 | 173
5 | ALRWLRRPEDRAFS [Q13472 9-22] | 353 | 48
6 | ILPSLSRPARSDQA [O43149 568-581] | 366 | 1320
7 | ILPDFKRPASFGTY [O43844 486-499] | 23.1 | 30.9
8 | ILRPPRRPRKPKTL [Q9NYS8 1488-1501] | 1310 | 7790
9 | ILSPPRRPRHSQPA [Q8WYU9 180-193] | 797 | 344
10 | IMFDLRRPPQNHTY [Q9HCC8 352-365] | 230 | 62.4
11 | IPERPLRPPSEKRA [Q9Y2W3 72-86] | 7610 | 11100
12 | IPQRPSRPARRPLG [Q9HBL3 242-255] | 84800 | 27600
13 | IPREPGRPGKGNYW [Q12950 67-80] | 32.8 | 59
14 | IQAPPPRPPKNQGL [Q9BYB6 252-266] | 2290 | 861
15 | IQEALKRPIKQKRK [Q9Y635 106-119] | 89.8 | 92.2
16 | ALSLPEKPPRGEQG [O94819 607-621] | 112 | 727

Row | Binder | normalised SPOT signal, Boehringer light units (BLU); mean over the file's lines of this peptide [1] | normalised SPOT signal, Boehringer light units (BLU); mean over the file's lines of this peptide [2]
17 | IQEALKRPMKQKRK [Q92926 129-142] | 109 | 71.7
18 | IQFVIKRPELLTEG [O95444 633-646] | 29.8 | 28.5
19 | IQVAFRRPETPSSG [Q9H8D9 51-64] | 5.6 | 55.7
20 | IRFKLKRPLEDGGR [O95444 196-209] | 39.9 | 38.3
21 | IRGLLARPAKLQVQ [P07202 539-552] | 54.1 | 97.3
22 | IRLPPARPPTPGRS [AAM34265 504-518] | 19900 | 4960
23 | IRLSPNRPPLGGSS [P98161 2462-2476] | 1100 | 186
24 | IRQILSRPERLLFI [Q9C000 395-408] | 398 | 973
25 | IRSALKRPVEQPLG [P48165 231-244] | 0 | 26.3
26 | ISSVPRRPARALHP [Q9HBK4 869-882] | 5010 | 12900
27 | ALSRLARPQRLPVA [P80365 68-81] | 492 | 1350
28 | ISELIKRPNVSPKV [Q9NX58 81-94] | 14.7 | 30.6
29 | ISFHPKRPMHILLH [Q96SZ9 375-388] | 524 | 56.1
30 | ISFHPKRPVHILLH [Q96T13 405-418] | 173 | 27.3
31 | ISFIIKRPFLEPKK [P78347 180-193] | 130 | 42.4
